{"source": "patent EP4653453A1", "molecular_target": "single antigen M1 peptide segment (monkeypox virus M1 protein) (Monkeypox virus isolate MPXV_USA_2022_MA001) (UniProt M1LBP0)", "sequence (M1LBP0 2-181 limits assumed)": "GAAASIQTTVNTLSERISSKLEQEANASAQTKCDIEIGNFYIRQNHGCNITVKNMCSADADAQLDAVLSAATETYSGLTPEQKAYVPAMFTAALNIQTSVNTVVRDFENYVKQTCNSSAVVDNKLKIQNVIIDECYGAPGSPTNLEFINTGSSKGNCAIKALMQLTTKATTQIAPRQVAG", "assay": "SPR", "data": [{"substance": "neutralizing antibody 7D11", "values": [{"measurement": "Kd", "value": 3.3, "unit": "nM"}]}]}
